The values that follow come from patent publication US4851572A, “γ-L-glutamyl-4-nitroanilide derivatives and process for determining γ-GTP activity using the same” (Wako Pure Chemical Industries, Ltd., priority 1987, dated 1989).

The series has as its system T1, N[C@@H](CCC(=O)Nc1ccc([N+](=O)[O-])c(CO)c1)C(=O)O.
T1 construct: As samples, there were used human serum; from tissue; host or cells: human serum
As to the kind of experiment: Km value, γ-GTP from human serum. In kind it is biochemical. The note with it: other: human serum γ-GTP. The source says: In Table 3 are shown the results of measuring, by a conventional method, Km values of γ-L-glutamyl-3-hydroxymethyl-4-nitroanilide, which is a compound of this invention, for each of γ-GTPs derived from human serum, porcine kidney and bovine kidney.
In Table 3 are also shown, for reference, Km values of γ-L-glutamyl-3-carboxy-4-nitroanilide and γ-L-glutamyl-p-nitroanilide reported by Leslie M. Shaw (Clinical Chemistry, 23, 79 (1977)).

γ-GTP (human serum) (Homo sapiens), sequence (chain, as listed by the source): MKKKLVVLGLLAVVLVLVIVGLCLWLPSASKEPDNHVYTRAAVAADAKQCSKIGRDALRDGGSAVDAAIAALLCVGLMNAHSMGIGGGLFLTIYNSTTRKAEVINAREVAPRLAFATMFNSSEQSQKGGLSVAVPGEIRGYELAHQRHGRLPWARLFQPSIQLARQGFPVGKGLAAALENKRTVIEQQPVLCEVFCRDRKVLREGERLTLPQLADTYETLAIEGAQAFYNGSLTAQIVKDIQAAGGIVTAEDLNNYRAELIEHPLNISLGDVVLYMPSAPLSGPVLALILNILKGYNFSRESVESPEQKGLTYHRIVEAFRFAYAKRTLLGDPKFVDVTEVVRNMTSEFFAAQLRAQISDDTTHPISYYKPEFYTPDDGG
γ-GTP (human serum) (Homo sapiens), sequence (chain, as listed by the source): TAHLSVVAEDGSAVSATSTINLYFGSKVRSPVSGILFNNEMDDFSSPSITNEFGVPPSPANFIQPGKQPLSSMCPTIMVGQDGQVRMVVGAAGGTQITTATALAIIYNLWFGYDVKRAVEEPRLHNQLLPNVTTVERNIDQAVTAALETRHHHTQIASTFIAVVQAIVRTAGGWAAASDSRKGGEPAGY

Turning to γ-GTP (human serum) (Homo sapiens), the Km (as a rule, the substrate concentration at which the rate is half of its maximum) is 0.94 mM.
